According to US20180271960A1, “METHOD TO TREAT CANCER USING ARGININE DELPETOR AND ORNITHINE DECARBOXYLASE (ODC) INHIBITOR” (Bio-Cancer Treatment International Ltd., priority 2015, published 2018):
Entries after “also recorded” stand apart in the source; their conditions may differ.

Legend:
[1] = tested on: MIA-PaCa-2 pancreatic cancer xenograft; test: MIA-PaCa-2 pancreatic cancer xenograft model; type: in vivo, mouse; details: MIA-PaCa-2 xenograft; PEG-BCT-100 20 mg/kg IV twice a week; DFMO 2% w/v in drinking water
Procedure: (§1) In one example embodiment, the MIA-PaCa-2 tumour cells are maintained in vitro culture in EMEM medium supplemented with 10% heat inactivated fetal bovine serum at 37° C. in an atmosphere of 5% CO2 in air. The tumour cells are routinely sub-cultured twice weekly. The cells growing in an exponential growth phase are harvested and counted for tumour inoculation.
Each mouse is inoculated subcutaneously at the right flank region with MIA-PaCa-2 tumour cells (5×10^6) in 0.1 ml of PBS (1:1 Matrigel) for tumour development. The treatments start when the mean tumour size reaches 124 mm^3. The date of tumour cell inoculation was denoted as day 0.
(§2) Four treatment groups of animals, with eight animals in each group, are tested. Control group (negative control) receives physiological saline, and the three treatment groups respectively receive 20 mg/kg of PEG-BCT-100 alone, 2% w/v DFMO in drinking water, and combination of 20 mg/kg of PEG-BCT-100 and 2% w/v DFMO. PEG-BCT-100 is administered intravenously, twice a week, until euthanization while DFMO is supplied in drinking water at 2% w/v.

[2] = tested on: Kasumi-1 leukemia xenograft; test: Kasumi-1 leukemia xenograft model; type: in vivo, mouse; details: Kasumi-1 xenograft; for anti-tumour effect: PEG-BCT-100 20 mg/kg IV twice a week, DFMO 2% w/v in drinking water
Procedure: as §1, with “Kasumi-1” for “MIA-PaCa-2”, “vitro as a suspension” for “vitro”, “RPMI1640” for “EMEM”
All mice are γ-irradiated (200 rad) for 24 h before tumour cell injection. Kasumi-1 tumour cells (1×10^7) in 0.2 ml of PBS are mixed with cultrex in a 1:1 ratio. Each mouse is inoculated subcutaneously at the right flank region with the tumour cells suspension for tumour development. The treatments start when the mean tumour size reached 114 mm^3. The date of tumour cell inoculation is denoted as day 0.
as §2

[3] = tested on: H1975 lung adenocarcinoma xenografts; test: H1975 lung adenocarcinoma xenograft; type: in vivo, BALB/c nude mice; details: for median survival: PEG-BCT-100 20 mg/kg IP twice a week
Procedure: (§3) In one example embodiment, ten million lung adenocarcinoma cells from cell lines H1650, H1975, and HCC4006 are engrafted subcutaneously in BALB/cnude mice (4 weeks old with body weight of 10-14 g). Body weight, clinical signs and survival times are recorded.
(§4) Two groups of the mice, with eight mice in each group, are tested. Control group (negative control) receives physiological saline and treatment group receives 20 mg/kg of PEG-BCT-100. PEG-BCT-100 is administered via intraperitoneal (IP) injection, twice weekly, until euthanization.
(§5) In one example embodiment, ten million lung adenocarcinoma cells from cell lines H1650, H1975 and HCC4006 are engrafted subcutaneously in BALB/cnude mice (4 weeks old with body weight of 10-14 g). Body weight, clinical signs and survival times are recorded.
as §2, with “Four” for “Four treatment”, “the mice,” for “animals,”, “mice” for “animals”, “intraperitoneally,” for “intravenously,”

[4] = tested on: H1650 lung adenocarcinoma xenografts; test: H1650 lung adenocarcinoma xenograft; type: in vivo, BALB/c nude mice; details: for median survival: PEG-BCT-100 20 mg/kg IP twice a week
Procedure: as §3, §4, §5
as §2, with “Four” for “Four treatment”, “the mice,” for “animals,”, “mice” for “animals”, “intraperitoneally,” for “intravenously,”

[5] = tested on: CAPAN-1 pancreatic cancer xenograft; test: CAPAN-1 pancreatic cancer xenograft model; type: in vivo, mouse; details: CAPAN-1 xenograft; PEG-BCT-100 20 mg/kg IV twice a week; DFMO 2% w/v in drinking water
Procedure: as §1, with “CAPAN-1” for “MIA-PaCa-2”
Each mouse is inoculated subcutaneously at the right flank region with CAPAN-1 tumour cells (5×10^6) in 0.1 ml of PBS (1:1 Matrigel) for tumour development. The treatments start when the mean tumour size reaches 119 mm^3. The date of tumour cell inoculation is denoted as day 0.
as §2

K-562 leukemia xenograft = K-562 leukemia xenograft model; type: in vivo, mouse; details: K-562 xenograft; PEG-BCT-100 20 mg/kg IV twice a week; DFMO 2% w/v in drinking water
Procedure: as §1, with “K-562” for “MIA-PaCa-2”, “vitro as a suspension” for “vitro”, “RPMI1640” for “EMEM”
Each mouse is inoculated subcutaneously at the right flank region with K-562 tumour cells (5×10^6) in 0.1 ml of PBS/Matrigel (1:1) for tumour development. The treatments start when the mean tumour size reaches 125 mm^3. The date of tumour cell inoculation is denoted as day 0.
as §2

[6] = PEG-BCT-100 20 mg/kg IP twice weekly, DFMO 2% w/v in drinking water, 20 mg/kg
[7] = PEG-BCT-100 20 mg/kg vs control arm
[8] = PEG-BCT-100 20 mg/kg vs control arm, 20 mg/kg

| Molecule | anti-tumour effect [1] | TGI ([2]; 2% DFMO in drinking water) [%] | anti-tumour effect [2] | median survival ([3]; DFMO 2% w/v in drinking water) [days] | median survival ([4]; DFMO 2% w/v in drinking water) [days] | anti-tumour effect [5] | anti-tumour effect (K-562 leukemia xenograft) | tumour growth [3, 6] | in vivo ASS1 expression (Western blot) [3, 7] | in vivo ODC expression (Western blot) [3, 8] | tumour growth [4, 6] | in vivo ASS1 expression (Western blot) [4, 7] | in vivo ODC expression (Western blot) [4, 8] |
| --- | --- | --- | --- | --- | --- | --- | --- | --- | --- | --- | --- | --- | --- |
| NCCC[C@](N)(C(=O)O)C(F)F [DFMO, α-difluoromethylornithine, reference compound] | significant anti-tumour effect | 45 | significant anti-tumour activity | 18 | 17 | no significant anti-tumour effect | no significant anti-tumour effect |  |  |  |  |  |  |
| PEG-BCT-100: pegylated recombinant human arginase I (SEQ ID NO.1, or SEQ ID NO.3 with six histidines), about 6-12 PEG molecules per arginase (protein, UniProt P05089 1-322, looked up, PEG, about 6-12 per arginase; optional His6 tag) Arginase-1: MSAKSRTIGIIGAPFSKGQPRGGVEEGPTVLRKAGLLEKLKEQECDVKDYGDLPFADIPNDSPFQIVKNPRSVGKASEQLAGKVAEVKKNGRISLVLGGDHSLAIGSISGHARVHPDLGVIWVDAHTDINTPLTTTSGNLHGQPVSFLLKELKGKIPDVPGFSWVTPCISAKDIVYIGLRDVDPGEHYILKTLGIKYFSMTEVDRLGIGKVMEETLSYLLGRKKRPIHLSFDVDGLDPSFTPATGTPVVGGLTYREGLYITEEIYKTGLLSGLDIMEVNPSLGKTPEEVTRTVNTAVAITLACFGLAREGNHKPIDYLNPPK | do not produce a significant anti-tumour effect |  | no significant anti-tumour effect | 15 | 10 | no significant anti-tumour effect | no significant anti-tumour effect | induces lung adenocarcinoma proliferation; also recorded: promotes tumour growth | decreases | increases; also recorded: over-expressed; also recorded: upregulated | induces lung adenocarcinoma proliferation; also recorded: promotes tumour growth | remains unchanged | increases; also recorded: over-expressed; also recorded: upregulated |
